# From patent US20040224408A1, “THAP proteins as nuclear receptors for chemokines and roles in transcriptional regulation, cell proliferation and cell differentiation” (published 2004)
# T1: THAP1ΔQRCRR mutant (deletion of residues 168-172) (human, UniProt Q9NVV9 1-213)
# T1 construct: Tested as a Gal4-BD fusion (pGBKT7), as in vitro translated protein and as an EGFP fusion; also called THAP1?QRCRR; THAP1?(QRCRR)
# T1 sequence: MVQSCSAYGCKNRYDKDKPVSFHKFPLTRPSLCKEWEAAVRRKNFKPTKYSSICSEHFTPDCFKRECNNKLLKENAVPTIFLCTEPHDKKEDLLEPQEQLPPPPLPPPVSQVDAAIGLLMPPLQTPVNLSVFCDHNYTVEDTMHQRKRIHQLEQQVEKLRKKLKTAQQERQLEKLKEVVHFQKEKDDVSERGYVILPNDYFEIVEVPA
# T2: human THAP1 (THanatos (death)-Associated Protein-1), full length (human, UniProt Q9NVV9 1-213)
# T2 construct: also called hTHAP1; FLJ10477
# T2 sequence: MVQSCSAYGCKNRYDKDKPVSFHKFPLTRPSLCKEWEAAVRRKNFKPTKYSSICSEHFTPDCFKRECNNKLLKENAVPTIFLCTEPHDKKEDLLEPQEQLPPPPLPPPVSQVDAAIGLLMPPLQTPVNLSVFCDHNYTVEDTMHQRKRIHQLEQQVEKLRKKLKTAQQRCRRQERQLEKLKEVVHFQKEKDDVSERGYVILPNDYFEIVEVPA
# T3: THAP1-N2 deletion mutant (amino acids 1-166) (human, UniProt Q9NVV9 1-166)
# T3 construct: Tested as a Gal4-BD or Gal4-AD fusion, as in vitro translated 35S-labelled protein and as an EGFP fusion
# T3 sequence: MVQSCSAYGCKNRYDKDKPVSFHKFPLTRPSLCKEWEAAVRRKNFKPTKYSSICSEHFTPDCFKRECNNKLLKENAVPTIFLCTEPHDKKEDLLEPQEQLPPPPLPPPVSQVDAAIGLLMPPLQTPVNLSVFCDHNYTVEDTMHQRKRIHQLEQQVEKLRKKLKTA
# T4: THAP1-N3 deletion mutant (amino acids 1-192) (human, UniProt Q9NVV9 1-192)
# T4 construct: Tested as a Gal4-BD or Gal4-AD fusion, as in vitro translated 35S-labelled protein and as an EGFP fusion
# T4 sequence: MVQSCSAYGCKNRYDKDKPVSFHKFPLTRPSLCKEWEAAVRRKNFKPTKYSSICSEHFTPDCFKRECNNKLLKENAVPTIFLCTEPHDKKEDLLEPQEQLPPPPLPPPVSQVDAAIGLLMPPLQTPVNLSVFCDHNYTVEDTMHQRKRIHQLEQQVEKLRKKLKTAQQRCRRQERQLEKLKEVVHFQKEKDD
# T5: THAP1-N1 deletion mutant (amino acids 1-90) (human, UniProt Q9NVV9 1-90)
# T5 construct: Tested as a Gal4-BD or Gal4-AD fusion, as in vitro translated 35S-labelled protein and as an EGFP fusion
# T5 sequence: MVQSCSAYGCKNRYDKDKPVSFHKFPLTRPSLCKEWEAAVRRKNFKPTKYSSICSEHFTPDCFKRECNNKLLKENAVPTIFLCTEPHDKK
# T6: THAP1-C1 deletion mutant (amino acids 90-213) (human, UniProt Q9NVV9 90-213)
# T6 construct: Tested as a Gal4-BD or Gal4-AD fusion, as in vitro translated 35S-labelled protein and as an EGFP fusion; also called THAP1ΔTHAP; THAP1?THAP
# T6 sequence: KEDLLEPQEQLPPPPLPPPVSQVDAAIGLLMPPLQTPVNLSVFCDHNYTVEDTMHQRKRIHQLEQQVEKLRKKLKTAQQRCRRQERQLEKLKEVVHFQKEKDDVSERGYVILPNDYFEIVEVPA
# T7: THAP1-C2 deletion mutant (amino acids 120-213) (human, UniProt Q9NVV9 120-213)
# T7 construct: Tested as a Gal4-BD or Gal4-AD fusion, as in vitro translated 35S-labelled protein and as an EGFP fusion
# T7 sequence: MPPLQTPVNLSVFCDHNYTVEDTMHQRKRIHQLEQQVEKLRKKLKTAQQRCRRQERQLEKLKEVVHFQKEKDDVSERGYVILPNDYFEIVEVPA
# T8: THAP1-C3 deletion mutant (amino acids 143-213) (human, UniProt Q9NVV9 143-213)
# T8 construct: Tested as a Gal4-BD or Gal4-AD fusion, as in vitro translated 35S-labelled protein and as an EGFP fusion
# T8 sequence: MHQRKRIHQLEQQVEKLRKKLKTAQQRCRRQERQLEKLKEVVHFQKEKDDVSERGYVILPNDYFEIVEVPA
# T9: THAP1 THAP domain (Homo sapiens, UniProt Q9NVV9 SEQ:1-90)
# T9 sequence: T5 sequence
# B1: Par4 leucine zipper/death domain (Par4DD, amino acids 250-342) (other)
# chain: GFPRYNRDANVSGTLVSSSTLEKKIEDLEKEVVTERQENLRLVRLMQDKEEMIGKLKEEIDLLNRDLDDIEDENEQLKQENKTLLKVVGQLTR
# notes: also called myc-Par4DD; mycPar4DD
# B2: GST-Par4DD fusion protein (pGEX-2T-Par4DD, Par4 amino acids 250-342) (other)
# chain: B1 chain
# notes: Expressed in E. coli DH5alpha and immobilized on glutathione sepharose; not shown: Glutathione S-transferase (GST) encoded by the pGEX-2T prokaryotic expression vector (Amersham Pharmacia Biotech); N-ter
# B3: 3mut1 (dsDNA)
# DNA 1: AGCAAGTAATTTCAAACTACTTCAT
# DNA 2: ATGAAGTAGTTTGAAATTACTTGCT
# B4: wild-type THRE probe 3 (dsDNA)
# DNA 1: AGCAAGTAAGGGCAAACTACTTCAT
# DNA 2: ATGAAGTAGTTTGCCCTTACTTGCT
# Key:
# [1] = molecular target: T1, THAP1ΔQRCRR mutant (deletion of …); assay: yeast two-hybrid
# Experimental: (§1) Two-hybrid interaction between THAP1 mutants and Par4DD was tested by cotransformation of AH109 with pGBKT7-THAP1-C1, -C2, -C3, -N1, -N2 or -N3 and pGADT7-Par4DD and selection of transformants by His and Ade double auxotrophy according to manufacturer's instructions ([…] two-hybrid system 3, Clontech).
# for mutant THAP1ΔQRCRR. The resulting PCR fragments were digested with EcoRI and BamHI, and cloned in frame downstream of the Gal4 Binding Domain (Gal4-BD) in pGBKT7 two-hybrid vector (Clontech) to generate pGBKT7-THAP1-RR/AA and −Δ(QRCRR), or downstream of the Enhanced Green Fluorescent Protein (EGFP) ORF in pEGFP.C2 vector (Clontech) to generate pEGFP.C2-THAP1-RR/AA and −Δ(QRCRR). THAP1 RR/AA and THAP1ΔQRCRR THAP1 mutants were then tested in the three THAP1/Par4 interaction assays (two-hybrid assay, in vitro THAP1/Par4 interaction assay, in vivo THAP1/Par4 interaction assay) as described above for the THAP1-C1, -C2, -C3, -N1, -N2 or -N3 mutants.
# [2] = molecular target: T2, human THAP1 (THanatos …); assay: yeast two-hybrid, both orientations (His/Ade selection)
# Text: We then examined whether the leucine zipper/death domain at the C-terminus of Par4, previously shown to be involved in Par4 binding to WT-1 and aPKC, was required for the interaction between THAP1 and Par4. Two Par4 mutants were constructed for that purpose, Par4A and Par4DD. Par4A lacks the leucine zipper/death domain while Par4DD contains this domain. pGBKT7-Par4A(amino acids 1-276) and pGADT7-Par4A. were constructed by sub-cloning a EcoRI-BglII fragment from pGADT7-Par4 into the EcoRI and BamHI sites of pGBKT7 and pGADT7. Par4DD (amino acids 250-342) was amplified by PCR, using pGBKT7-Par4 as template, with primers Par4.4 (5′-[…]-3′) (SEQ ID NO: 193) and Par4.5, and cloned into the EcoRI and BamHI sites of pGBKT7 and pGADT7 to obtain pGBKT7-Par4DD and pGADT7-Par4DD. Two-hybrid interaction between THAP1 and Par4 mutants was tested by cotransformation of AH109 with pGBKT7-THAP1 and pGADT7-Par4A or pGADT7-Par4DD and selection of transformants by His and Ade double auxotrophy according to manufacturer's instructions ([…] two-hybrid system 3, Clontech). […] Similar results were obtained when two-hybrid experiments were performed in the opposite orientation using Par4 or Par4 mutants (Par4A and Par4DD) as baits instead of THAP1 (FIG. 3A).
# [3] = molecular target: T3, THAP1-N2 deletion mutant (amino acids …); assay: yeast two-hybrid, pGBKT7-THAP1 mutant with pGADT7-Par4DD
# Experimental: as §1
# [4] = molecular target: T4, THAP1-N3 deletion mutant (amino acids …); assay: as above
# Experimental: as §1
# [5] = molecular target: T5, THAP1-N1 deletion mutant (amino acids …); assay: as above
# Experimental: as §1
# [6] = molecular target: T6, THAP1-C1 deletion mutant (amino acids …); assay: as above
# Experimental: as §1
# [7] = molecular target: T7, THAP1-C2 deletion mutant (amino acids …); assay: as above
# Experimental: as §1
# [8] = molecular target: T8, THAP1-C3 deletion mutant (amino acids …); assay: as above
# Experimental: as §1
# [9] = molecular target: T1, THAP1ΔQRCRR mutant (deletion of …); assay: in vitro THAP1/Par4 interaction assay (GST pull-down with GST-Par4DD)
# Experimental: (§2) THAP1 mutants were also tested in the in vitro THAP1/Par4 interaction assay. In vitro-translated THAP1 mutants were generated with the TNT-coupled reticulocyte lysate system (Promega, Madison, Wis., USA) using pGBKT7-THAP1-C1, -C2, -C3, -N1, -N2 or -N3 vector as template. 25 μl of each ³⁵S-labelled THAP1 mutant was incubated with immobilized GST or GST-Par4 protein overnight at 4° C., in the following binding buffer: 10 mM NaPO4 pH 8.0, 140 mM NaCl, 3 mM MgCl2, 1 mM dithiothreitol (DTT), 0.05% NP40, and 0.2 mM phenylmethyl sulphonyl fluoride (PMSF), 1 mM Na Vanadate, 50 mM β Glycerophosphate, 25 μg/ml chimotrypsine, 5 μg/ml aprotinin, 10 μg/ml Leupeptin. Beads were then washed 5 times in 1 ml binding buffer. Bound proteins were eluted with 2×Laemmli SDS-PAGE sample buffer, fractionated by 10% SDS-PAGE and visualized by fluorography using Amplify (Amersham Pharmacia Biotech). As expected, THAP1-C1, -C2, -C3, -and -N3 interacted with GST/Par4DD (FIG. 4B).
# for mutant THAP1ΔQRCRR. The resulting PCR fragments were digested with EcoRI and BamHI, and cloned in frame downstream of the Gal4 Binding Domain (Gal4-BD) in pGBKT7 two-hybrid vector (Clontech) to generate pGBKT7-THAP1-RR/AA and −Δ(QRCRR), or downstream of the Enhanced Green Fluorescent Protein (EGFP) ORF in pEGFP.C2 vector (Clontech) to generate pEGFP.C2-THAP1-RR/AA and −Δ(QRCRR). […]
# [10] = molecular target: T3, THAP1-N2 deletion mutant (amino acids …); assay: GST pull-down, immobilized GST-Par4DD, in vitro translated 35S-labelled mutant
# Experimental: as §2
# [11] = molecular target: T5, THAP1-N1 deletion mutant (amino acids …); assay: as above
# Experimental: as §2
# [12] = molecular target: T9, THAP1 THAP domain; assay: EMSA; also no competition at 50-250x molar excess; conditions: tags: C-terminal His6 (pET-21c); label: 32P
# Experimental: To confirm that the THAP domain is a novel sequence specific DNA-binding domain, electrophoretic mobility shift assays (EMSA) were carried out using wild-type or mutant THAP domain responsive elements (THRE) determined by SELEX (see Example 28 and FIGS. 18 and 24). Double-stranded probes used in EMSA experiments were purified on 12% polyacrylamide gels, ³²P end labeled with T4 polynucleotide kinase and quantified by Cerenkov counting. About 20 ng of purified THAP domain from human THAP1 (prepared as described in Example 28) was incubated with 30000 cpm of the appropriate probe (about 2 ng). Binding reactions were carried out for 10 minutes at room temperature in 20 μl binding buffer (20 mM Tris-HCl pH 7.5, 100 mM KCl, 0.1% NP-40, 100 μg/ml BSA, 2.5 mM DTT, 5% glycerol, 200 ng poly (dI-dC)). Electrophoresis was performed on 8% (29:1) polyacrylamide gels containing 5% glycerol. Gels were run in 0.25×TBE at 150V and 4° C., dried and exposed on a phosphoimager screen (Molecular Dynamics). […]
# [13] = molecular target: T9, THAP1 THAP domain; assay: EMSA; 20 mM Tris-HCl pH 7.5, 100 mM KCl, poly(dI-dC), room temperature; abrogated by 1,10-phenanthroline, restored by Zn; self-competed by 50-250x unlabelled probe; conditions: tags: C-terminal His6 (pET-21c); label: 32P
# Experimental: Binding reactions were carried out for 10 minutes at room temperature in 20 μl binding buffer (20 mM Tris-HCl pH 7.5, 100 mM KCl, 0.1% NP-40, 100 μg/ml BSA, 2.5 mM DTT, 5% glycerol, 200 ng poly (dI-dC)). Electrophoresis was performed on 8% (29:1) polyacrylamide gels containing 5% glycerol. Gels were run in 0.25×TBE at 150V and 4° C., dried and exposed on a phosphoimager screen (Molecular Dynamics). Sequences of wild type and mutant THRE oligonucleotides used in EMSA experiments were as follow (mutations are indicated in bold): wild-type probe 3, 5′-[…]-3′ (SEQ ID NO: 313); mutant probe 3mut1, 5′-[…]-3′ (SEQ ID NO: 314); mutant probe 3mut3, 5′-[…]-3′ (SEQ ID NO: 319); mutant probe 3mut4, 5′-[…]-3′ (SEQ ID NO: 320); mutant probe 3mut14, 5′-[…]-3′ (SEQ ID NO: 321); mutant probe 3mut5, 5′-[…]-3′ (SEQ ID NO: 322).
# For competition experiments, 50-, 150-, and 250-fold molar excess of unlabelled wild-type (THRE competitor, probe 3) or mutant (non-specific competitor, probe 3mut1) THRE oligonucleotides were added to the reaction mixture just before the addition of the probe.
# Since the THAP domain is characterized by a C2-CH conserved motif that may function as a Zn-binding site, we then determined whether DNA-binding activity of the THAP domain is Zn-dependent. […]
binder,measurement,setting,value
B1,binding result,[1],no binding
same,binding result,[2],binds
same,binding result,[3],no binding
same,binding result,[4],binds
same,binding result,[5],no binding
same,binding result,[6],binds
same,binding result,[7],binds
same,binding result,[8],binds
B2,binding result,[9],no binding
same,binding result,[10],no binding
same,binding result,[11],no binding
B3,binding result,[12],no binding
B4,binding result,[13],binds
